In article PMC4861126 one finds Kd data, which are given here for one molecule.

The target of the experiment is Rap1 preloaded with mGppNHp (GDI assay) (Dictyostelium) (UniProt P18613). As to the kind of experiment: GDI (guanine nucleotide dissociation inhibition) assay, fluorescence; mGppNHp labelled G-protein with indicated amounts of RA-TalB, 200 fold excess of GppNHp, 25 °C; 50 mM Tris-HCl pH 7.5, 5 mM MgCl2, 50 mM NaCl, 5 mM DTE; Kd from dependence of kobs on RA-TalB concentration.
Sequence of UniProt P18613 (P18613 whole entry): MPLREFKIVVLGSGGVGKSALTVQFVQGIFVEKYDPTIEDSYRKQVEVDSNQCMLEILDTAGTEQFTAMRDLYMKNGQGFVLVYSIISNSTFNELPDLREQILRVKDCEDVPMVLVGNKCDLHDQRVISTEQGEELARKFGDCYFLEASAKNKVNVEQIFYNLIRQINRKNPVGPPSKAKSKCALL

B1: Dictyostelium RA-TalB domain (residues 1-122) (domain or fragment)
chain: MSLTLKIQIVRDKQVKAMKFSPTQTVAEVCAQVREKINETSGDDHGLFQPGIDAKRPSRWLKMDKTLQFYDLKINDELDYKKKHRPLKVRLMDETVKTMLVDDSLTAGEILEIIGKRIGIKN
In the case of B1, the Kd is 19.9 µM.
